The results in this text go back to article PMC4007455.

In assay [1] the target is RNA polymerase II in isolated early elongation complexes (human (endogenous in HeLa)) (UniProt P24928).
Assay [2] has the same target. The source holds these as a separate data set.

In assay [1], “Gdown1 CTD(197–368) (from UniProt P0CAP2-1 197-368) (domain or fragment)” had an amount of Gdown1 CTD titrated onto EECs that completely blocks elongation stimulation by 0.1 pmol TFIIF, in vitro transcription, 7-min chase of 20 pmol.

In assay [2], “Gdown1 ΔLPDKG deletion mutant (from UniProt P0CAP2-1 1-368) (natural protein)” gave a block of TFIIF (0.1 pmol)-dependent runoff by 1 pmol ΔLPDKG mutant, in vitro transcription on isolated EECs, 7-min chase (blocks TFIIF acting on Pol II) of 90%; a termination region as percent of total counts with TTF2 (0.04 pmol) and 1 pmol ΔLPDKG mutant (72% with TTF2 alone), in vitro transcription on isolated EECs (blocks TTF2 acting on Pol II) (% of the total counts) of 50.
